The text below walks through data of patent publication US20260125457A1 (Janssen / Centocor, published 2026).

One may read the EC50 (read off the curve) as the midpoint of the concentration-response curve. Lower therefore signals higher potency in that assay.

Experiment [1] addresses T1, wild-type calreticulin (CALRwt) expressed with MPL in engineered cancer cells (UniProt P27797 18-417, limits assumed).
T1 construct: whole, on cells; also called OCI-M2 MPL CALRwt
T1 sequence (looked up): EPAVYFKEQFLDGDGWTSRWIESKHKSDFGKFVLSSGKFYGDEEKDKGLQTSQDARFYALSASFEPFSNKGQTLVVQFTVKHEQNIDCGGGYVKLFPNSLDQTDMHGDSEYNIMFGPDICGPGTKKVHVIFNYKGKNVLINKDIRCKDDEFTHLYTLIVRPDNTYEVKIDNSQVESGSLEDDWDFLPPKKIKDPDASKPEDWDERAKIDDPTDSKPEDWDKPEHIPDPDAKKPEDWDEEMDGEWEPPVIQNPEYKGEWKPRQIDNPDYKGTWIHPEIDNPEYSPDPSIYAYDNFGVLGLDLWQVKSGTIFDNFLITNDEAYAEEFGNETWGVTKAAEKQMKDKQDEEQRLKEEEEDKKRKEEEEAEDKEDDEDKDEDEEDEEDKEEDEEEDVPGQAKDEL
Kind of experiment: flow cytometry on OCI-M2 MPL CALRwt cells, 1 h at 37 C, AF647 secondary antibody, Geometric mean. As to the method: (§1) FIGS. 27A-27F depict binding of different CALRmutxCD3 antibodies to CALRmut-negative or CALRmut-positive cells. Flow cytometry was used to evaluate CALRmutxCD3 binding to CALRmut-negative and CALRmut-positive cancer cells in vitro. CALRmutxCD3 antibodies were tested on a panel of cell lines, engineered to express MPL and CALRmut, after 1 hour 37° C. incubation, with subsequent incubation with secondary AF647-labeled antibody. Geometric mean fluorescence intensity of AF647 was measured to determine antibody binding.

For experiment [2], the target named is T2, CALRins5 (mutant calreticulin, 5 base pair insertion, Type 2) expressed with MPL on engineered cancer cells (UniProt P27797 18-417).
T2 construct: whole, on cells; On the cell surface in complex with MPL; also called OCI-M2 MPL CALRins5
T2 sequence (looked up): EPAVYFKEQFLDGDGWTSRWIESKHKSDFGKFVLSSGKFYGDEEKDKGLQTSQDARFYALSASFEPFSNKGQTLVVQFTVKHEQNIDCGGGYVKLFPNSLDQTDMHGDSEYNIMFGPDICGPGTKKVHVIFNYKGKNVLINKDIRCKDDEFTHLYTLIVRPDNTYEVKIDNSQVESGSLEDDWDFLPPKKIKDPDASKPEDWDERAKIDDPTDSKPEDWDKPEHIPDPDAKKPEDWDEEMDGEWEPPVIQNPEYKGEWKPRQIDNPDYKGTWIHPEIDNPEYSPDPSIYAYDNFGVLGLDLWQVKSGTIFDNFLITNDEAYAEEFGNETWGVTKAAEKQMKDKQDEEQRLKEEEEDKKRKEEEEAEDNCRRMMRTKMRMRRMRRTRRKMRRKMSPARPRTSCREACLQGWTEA
Kind of experiment: flow cytometry on OCI-M2 MPL CALRins5 cells, 1 h at 37 C, AF647 secondary antibody, Geometric mean. As to the method:
as §1
On the technique in general: Flow cytometry measures light scatter and fluorescence of single cells or particles in a stream.

For experiment [3], the target named is T2, CALRins5 (mutant calreticulin, 5 base …). Description: flow cytometry on ELF-153 MPL CALRins5 cells, 1 h at 37 C, AF647 secondary antibody, Geometric mean. Here is the method: as §1
Experiment [4] concerns the target T3, CD3 on primary human pan T cells (human, UniProt P07766 23-207).
T3 construct: whole, on cells; also called CD3e; CD3ε
Kind of experiment: flow cytometry on pan CD3 T cells, 1 h at 37 C, AF647 secondary antibody, Geometric Mean. As to the method:
FIG. 22 depicts binding of different CALRmutxCD3 bispecific antibodies to pan CD3 T cells. Flow cytometry was used to evaluate CALRmutxCD3 binding to pan CD3 T cells in vitro, by 1 hour 37° C. incubation, with subsequent incubation with secondary AF647-labeled antibody. Geometric mean fluorescence intensity of AF647 was measured to determine antibody binding.
Flow cytometry was used to evaluate the CD3 arm binding of CALRmutxCD3 antibodies listed in Table 21 to CD3+ pan T cells from healthy human donor. CALRmutxCD3 were tested after 1 hour 37° C. incubation with pan T cells.

The target in experiment [5] is T1, wild-type calreticulin (CALRwt) …. Description: flow cytometry on ELF-153 MPL CALRwt cells, 1 h at 37 C, AF647 secondary antibody, Geometric Mean. As to the method: (§2) FIGS. 21A-21F depict binding of different CALRmutxCD3 bispecific antibodies to CALRmut-negative or CALRmut-positive cells. Flow cytometry was used to evaluate CALRmutxCD3 binding to CALRmut-negative and CALRmut-positive cancer cells in vitro. CALRmutxCD3 antibodies were tested on a panel of cell lines, engineered to express MPL and CALRmut, after 1 hour 37° C. incubation, with subsequent incubation with secondary AF647-labeled antibody. Geometric mean fluorescence intensity of AF647 was measured to determine antibody binding.

Experiment [6] addresses T4, CALRdel52 (mutant calreticulin, 52 base pair deletion, Type 1) expressed with MPL on engineered cancer cells (UniProt P27797 18-417).
T4 construct: whole, on cells; On the cell surface in complex with MPL; also called OCI-M2 MPL CALRdel52
T4 sequence (looked up): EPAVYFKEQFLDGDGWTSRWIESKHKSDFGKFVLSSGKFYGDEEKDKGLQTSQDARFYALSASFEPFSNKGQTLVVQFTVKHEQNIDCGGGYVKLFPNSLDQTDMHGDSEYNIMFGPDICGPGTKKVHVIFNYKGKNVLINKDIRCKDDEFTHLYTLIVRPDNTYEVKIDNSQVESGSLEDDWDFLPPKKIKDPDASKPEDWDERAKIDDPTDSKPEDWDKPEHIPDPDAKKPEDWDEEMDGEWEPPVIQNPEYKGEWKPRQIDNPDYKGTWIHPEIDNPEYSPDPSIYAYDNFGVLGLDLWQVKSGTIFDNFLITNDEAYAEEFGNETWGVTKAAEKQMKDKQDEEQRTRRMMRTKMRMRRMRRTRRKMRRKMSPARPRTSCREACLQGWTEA
Description: flow cytometry on OCI-M2 MPL CALRdel52 cells, 1 h at 37 C, AF647 secondary antibody, Geometric Mean. Here is the method:
as §2

T3 sequence (P07766 23-207): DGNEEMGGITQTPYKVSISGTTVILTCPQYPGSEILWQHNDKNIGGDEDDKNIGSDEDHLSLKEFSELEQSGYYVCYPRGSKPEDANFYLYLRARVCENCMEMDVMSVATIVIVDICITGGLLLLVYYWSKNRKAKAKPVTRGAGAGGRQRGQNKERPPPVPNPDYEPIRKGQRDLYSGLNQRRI

B1: C3CRB135 CALRmut x CD3 bispecific antibody (bispecific antibody, human IgG1, kappa, L234A L235A)
heavy: EVQLLESGGGLVQPGGSLRLSCAVSGIDLSNNAISWVRQAPGKGLEYVGVIGNTGDTYYADSAKGRFTISRDSSKTTLYLQMNSLRAEDTAVYFCVRGPPSYSSSVKNIWGQGTLVTVSSASTKGPSVFPLAPSSKSTSGGTAALGCLVKDYFPEPVTVSWNSGALTSGVHTFPAVLQSSGLYSLSSVVTVPSSSLGTQTYICNVNHKPSNTKVDKKVEPKSCDKTHTCPPCPAPEAAGGPSVFLFPPKPKDTLMISRTPEVTCVVVSVSHEDPEVKFNWYVDGVEVHNAKTKPREEQYNSTYRVVSVLTVLHQDWLNGKEYKCKVSNKALPAPIEKTISKAKGQPREPQVYTLPPSREEMTKNQVSLSCAVKGFYPSDIAVEWESNGQPENNYKTTPPVLDSDGSFFLVSKLTVDKSRWQQGNVFSCSVMHEALHNRFTQKSLSLSPGKGGGGSGGGGSDIQMTQSPSTLSASVGDRVTITCQASQSLYNNKNLAWYQQKPGCAPKLLIYYASALASGVPSRFSGSGSGTEFTLTISSLQPDDFATYYCQGEFNCNSADCNSFGGGTKVEIKGGGSGGSGGCPPCGGSGGQVQLVQSGAEVKKPGASVKVSCKASGFSLSSYAMSWVRQAPGQGLEWMGVIDSGGTTYYAQKFQGRVTMTRDTSTSTVYMELSSLRSEDTAVYYCARESYAGYDYYGHPIPYGMEPWGCGTLVTVSSH
light: DIQMTQSPSSVSASVGDRVTITCQSSQSVYNNNWLSWLQQKPGKAPKRLIYDASKLESGVPSRFSGSGSGTDFTLTISSVQPEDAATYYCAGGFTGNVYTFGGGTKVEIKRTVAAPSVFIFPPSDEQLKSGTASVVCLLNNFYPREAKVQWKVDNALQSGNSQESVTEQDSKDSTYSLSSTLTLSKADYEKHKVYACEVTHQGLSSPVTKSFNRGEC
scFv: DIQMTQSPSSLSASVGDRVTITCRARQSIGTAIHWYQQKPGCAPKLLIKYASESISGVPSRFSGSGSGTDFTLTISSLQPEDFATYYCQQSGSWPYTFGQGTKLEIKGGGSGGSGGCPPCGGSGGEVQLVESGGGLVKPGGSLRLSCAASGFTFSRYNMNWVRQAPGKGLEWVSSISTSSNYIYYADSVKGRFTFSRDNAKNSLDLQMSGLRAEDTAIYYCTRGWGPFDYWGCGTLVTVSSEPKSSDKTHTCPPCPAPEAAGGPSVFLFPPKPKDTLMISRTPEVTCVVVSVSHEDPEVKFNWYVDGVEVHNAKTKPREEQYNSTYRVVSVLTVLHQDWLNGKEYKCKVSNKALPAPIEKTISKAKGQPREPQVYTLPPSREEMTKNQVSLWCLVKGFYPSDIAVEWESNGQPENNYKTTPPVLDSDGSFFLYSKLTVDKSRWQQGNVFSCSVMHEALHNHYTQKSLSLSPGK
notes: Chain A heavy: CALRB421 heavy chain with CALRB1114 spFv at the C-terminus
For B1, the binding result in experiment [1] is on record as “no binding (tested: 100 nM)”. Further, the “EC50 (read off the curve)” value in experiment [2] was around 3 nM; in experiment [3], around 1 nM.

B2: C3CRB126 CALRmut x CD3 bispecific antibody (bispecific antibody, human IgG1, kappa, L234A L235A)
heavy 1: QVQLVQSGAEVKKPGASVKVSCKASGFSLSSYAMSWVRQAPGQGLEWMGVIDSGGTTYYAQKFQGRVTMTRDTSTSTVYMELSSLRSEDTAVYYCARESYAGYDYYGHPIPYGMEPWGQGTLVTVSSASTKGPSVFPLAPSSKSTSGGTAALGCLVKDYFPEPVTVSWNSGALTSGVHTFPAVLQSSGLYSLSSVVTVPSSSLGTQTYICNVNHKPSNTKVDKKVEPKSCGGGGSGGGGSDIQMTQSPSSLSASVGDRVTITCRARQSIGTAIHWYQQKPGCAPKLLIKYASESISGVPSRFSGSGSGTDFTLTISSLQPEDFATYYCQQSGSWPYTFGQGTKLEIKGGGSGGSGGCPPCGGSGGEVQLVESGGGLVKPGGSLRLSCAASGFTFSRYNMNWVRQAPGKGLEWVSSISTSSNYIYYADSVKGRFTFSRDNAKNSLDLQMSGLRAEDTAIYYCTRGWGPFDYWGCGTLVTVSSEPKSSDKTHTCPPCPAPEAAGGPSVFLFPPKPKDTLMISRTPEVTCVVVSVSHEDPEVKFNWYVDGVEVHNAKTKPREEQYNSTYRVVSVLTVLHQDWLNGKEYKCKVSNKALPAPIEKTISKAKGQPREPQVYTLPPSREEMTKNQVSLWCLVKGFYPSDIAVEWESNGQPENNYKTTPPVLDSDGSFFLYSKLTVDKSRWQQGNVFSCSVMHEALHNHYTQKSLSLSPGK
heavy 2: QVQLVQSGAEVKKPGASVKVSCKASGFSLSSYAMSWVRQAPGQGLEWMGVIDSGGTTYYAQKFQGRVTMTRDTSTSTVYMELSSLRSEDTAVYYCARESYAGYDYYGHPIPYGMEPWGQGTLVTVSSASTKGPSVFPLAPSSKSTSGGTAALGCLVKDYFPEPVTVSWNSGALTSGVHTFPAVLQSSGLYSLSSVVTVPSSSLGTQTYICNVNHKPSNTKVDKKVEPKSCDKTHTCPPCPAPEAAGGPSVFLFPPKPKDTLMISRTPEVTCVVVSVSHEDPEVKFNWYVDGVEVHNAKTKPREEQYNSTYRVVSVLTVLHQDWLNGKEYKCKVSNKALPAPIEKTISKAKGQPREPQVYTLPPSREEMTKNQVSLSCAVKGFYPSDIAVEWESNGQPENNYKTTPPVLDSDGSFFLVSKLTVDKSRWQQGNVFSCSVMHEALHNRFTQKSLSLSPGK
light: DIQMTQSPSTLSASVGDRVTITCQASQSLYNNKNLAWYQQKPGKAPKLLIYYASALASGVPSRFSGSGSGTEFTLTISSLQPDDFATYYCQGEFNCNSADCNSFGGGTKVEIKRTVAAPSVFIFPPSDEQLKSGTASVVCLLNNFYPREAKVQWKVDNALQSGNSQESVTEQDSKDSTYSLSSTLTLSKADYEKHKVYACEVTHQGLSSPVTKSFNRGEC
notes: Chain A heavy: CALRB1114 Fab heavy part, CD3 spFv (LH), Fc; Chain B heavy: CALRB1114
As to B2, the binding result in experiment [4] is listed as “binds”; in experiment [5], “no binding (tested: 100 nM)”. The “EC50 (read off the curve)” value in experiment [6] is around 1 nM.
